# T1: Full length UL16 on transfected 293 EBNA cells (human cytomegalovirus, UniProt P16757 27-230)
# T1 construct: whole, on cells; also called UL16 FL
# T1 sequence: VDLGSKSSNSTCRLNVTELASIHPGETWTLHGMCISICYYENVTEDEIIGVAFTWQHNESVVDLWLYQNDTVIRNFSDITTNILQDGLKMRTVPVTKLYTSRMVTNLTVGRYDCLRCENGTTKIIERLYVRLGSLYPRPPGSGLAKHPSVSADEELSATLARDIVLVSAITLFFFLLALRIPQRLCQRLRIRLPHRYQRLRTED
# T2: NKG2D/Dap10 on transfected 293E cells (UniProt P26718 1-216; Q9UBK5 19-93)
# T2 construct: whole, on cells; Co-expressed on 293 EBNA (293E) cells from the pDC409 vector; also called NKG2D+FLAG tagged Dap10
# T2 sequence 1: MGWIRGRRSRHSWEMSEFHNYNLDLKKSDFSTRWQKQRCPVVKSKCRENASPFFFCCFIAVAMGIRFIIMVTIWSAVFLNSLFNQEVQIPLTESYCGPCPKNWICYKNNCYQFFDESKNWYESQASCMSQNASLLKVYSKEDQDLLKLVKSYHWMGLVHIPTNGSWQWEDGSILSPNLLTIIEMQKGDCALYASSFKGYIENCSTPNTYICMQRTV
# T2 sequence 2: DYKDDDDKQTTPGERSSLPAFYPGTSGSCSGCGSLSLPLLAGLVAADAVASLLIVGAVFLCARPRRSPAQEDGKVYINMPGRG
# T3: NKG2D alone on transfected 293 EBNA cells (UniProt P26718 1-216, limits assumed)
# T3 construct: whole, on cells
# T3 sequence (looked up): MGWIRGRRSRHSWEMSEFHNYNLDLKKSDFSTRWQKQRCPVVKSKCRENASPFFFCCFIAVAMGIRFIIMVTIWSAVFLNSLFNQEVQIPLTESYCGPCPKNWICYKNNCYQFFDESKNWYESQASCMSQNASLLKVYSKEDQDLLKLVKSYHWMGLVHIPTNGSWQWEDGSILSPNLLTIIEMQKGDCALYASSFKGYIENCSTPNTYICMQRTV
# T4: FLAG tagged Dap10 alone on transfected 293 EBNA cells (UniProt Q9UBK5 19-93)
# T4 construct: whole, on cells
# T4 sequence: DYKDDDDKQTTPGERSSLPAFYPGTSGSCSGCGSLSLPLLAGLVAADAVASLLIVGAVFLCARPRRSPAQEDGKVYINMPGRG
# B1: ULBP3/Fc (Fc fusion)
# chain: DAHSLWYNFTIIHLPRHGQQWCEVQSQVDQKNFLSYDCGSDKVLSMGHLEEQLYATDAWGKQLEMLREVGQRLRLELADTELEDFTPSGPLTLQVRMSCECEADGYIRGSWQFSFDGRKFLLFDSNNRKWTVVHAGARRMKEKWEKDSGLTTFFKMVSMRDCKSWLRDFLMHRKKRLEPTAPPTMAPG
# notes: That entry lacks the first five residues of the leader and still holds the rest of the signal peptide and the GPI signal; not shown: Fc portion of ULBP3/Fc is not described
# What was measured:
# [1] = molecular target: T1, Full length UL16 on transfected 293 …; assay: flow cytometry on 293 EBNA cells transfected with full length UL16
# [2] = molecular target: T2, NKG2D/Dap10 on transfected 293E cells; assay: flow cytometry; NKG2D/Dap10-transfected 293E cells preincubated with 25 µg hCD40L/LZ (control blocking protein)
# [3] = molecular target: T2, NKG2D/Dap10 on transfected 293E cells; assay: flow cytometry; NKG2D/Dap10-transfected 293E cells preincubated with 25 µg ULBP1/LZ (competitor)
# [4] = molecular target: T1, Full length UL16 on transfected 293 …; assay: flow cytometry, transfected 293 EBNA cells, 2 µg Fc protein + goat anti-human IgG PE
# [5] = molecular target: T3, NKG2D alone on transfected 293 EBNA …; assay: as above
# [6] = molecular target: T4, FLAG tagged Dap10 alone on transfected …; assay: as above
# [7] = molecular target: T2, NKG2D/Dap10 on transfected 293E cells; assay: as above
binder,measurement,setting,value
B1,binding result,[1],no binding (tested: 2 µg)
same,Mean Fluorescence Intensity (MFI),[2],267 MFI
same,Mean Fluorescence Intensity (MFI),[3],13 MFI
same,Mean Fluorescence Intensity (MFI),[4],11.9 MFI
same,Mean Fluorescence Intensity (MFI),[5],9.55 MFI
same,Mean Fluorescence Intensity (MFI),[6],14 MFI
same,Mean Fluorescence Intensity (MFI),[7],102 MFI
